Here are results for 3 molecules from patent US7598354 (NATIONAL RESEARCH COUNCIL OF CANADA, dated 2009).

B1: Cj0638c, inorganic pyrophosphatase (Ppa) (enzyme)
chain: MNLSKIKIGDIPNKINAVIEIPYGSNIKYEIDKDSGAIMVDRVMASAIFYPANYGFIANTLADDGDPVDILVLNEYPIQAGAVIPCRLIGVLIMEDESGMDEKLLAVPNSKIDARYDNIKTYTDLPQATLNKIKNFFETYKILEPNKWVKVQDFKDEKAAIEILEKAIKNYK
B2: Cj0332c, nucleoside diphosphate kinase (Ndk) (enzyme)
chain: MEKTLSIIKPDAVKKGVIGKILDRFESNGLRIAAMKKVQLSKEQAENFYAVHKERPFFKDLVEFMISGPVVVSILEGEGAVLKNRDLMGATNPKEAKAGTIRADFAESIDANAVHGSDSLENAKIEIEFFFKPNEIC
B3: Cj0169, superoxide dismutase (Fe; SodB) (enzyme)
chain: MFELRKLPYDTNAFGDFLSAETFSYHHGKHHNTYVTNLNNLIKDTEFAGKDLVSIIKTSNGGVFNNAAQVYNHDFYFDCIKPSTGCGCGGSCQSIDANLQAALEKEFGSLENFKAEFIKGATGVFGSGWFWLVYNTKNQKLEFVGTSNAATPITEDKVPLLVVDVWEHAYYVDHRNARPAYLEKFYAHINWEFVAKAYEWALKEGMGSVSFYANELHPVK

For the test, the target named is T1, soybean agglutinin (SBA)-alkaline phosphatase conjugate (soybean, UniProt P05046 33-285, conjugated to alkaline phosphatase (EY Laboratories)).
T1 construct: Lectin; Alkaline phosphatase part not described; also called GalNAc-specific lectin; SBA lectin
T1 sequence (P05046 33-285 limits assumed): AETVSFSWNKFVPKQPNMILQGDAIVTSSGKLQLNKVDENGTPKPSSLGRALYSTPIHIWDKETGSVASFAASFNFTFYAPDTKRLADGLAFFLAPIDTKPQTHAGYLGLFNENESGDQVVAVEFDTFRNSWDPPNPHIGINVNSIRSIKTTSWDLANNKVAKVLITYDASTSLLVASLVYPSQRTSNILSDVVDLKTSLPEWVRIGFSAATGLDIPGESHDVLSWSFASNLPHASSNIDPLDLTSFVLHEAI
Kind of test: Western blot of 2D gel probed with SBA-alkaline phosphatase conjugate. A general note: Immunoblotting shows a protein as a band on a membrane.
For the molecule B1, the binding result is “no binding (tested: 10 µg/mL)”.
As for B2, the binding result was “no binding (tested: 10 µg/mL)”.
On to B3, for which the binding result is on record as “no binding (tested: 10 µg/mL)”.
